In publication PMC2752461, “Involvement of S-adenosylmethionine-dependent halide/thiol methyltransferase (HTMT) in methyl halide emissions from agricultural plants: isolation and characterization of an HTMT-coding gene from Raphanus sativus (daikon radish)” (BMC Plant Biology, 2009):

Experiments:
[1] = substrate: N#CS; test: GC-FID of CH3SCN formation; format: biochemical, Raphanus sativus; conditions: 500 μM SAM constant, KSCN, 20 mM MES pH 7.0, 30 °C
Text: GC-FID of CH3SCN formation on recombinant RsHTMT

[2] = substrate: C[S+](CC[C@H](N)C(=O)O)C[C@H]1O[C@@H](n2cnc3c(N)ncnc32)[C@H](O)[C@@H]1O; test: purified protein; conditions: 20 mM iodide constant, 20 mM MES pH 7.0, 30 °C
[3] = substrate: S; test: GC-MS headspace assay of methylated product; format: biochemical, Raphanus sativus; conditions: 500 μM SAM constant, supplied as NaSH, 20 mM MES pH 7.0, 30 °C
Text: (§1) GC-MS headspace assay of methylated product on recombinant RsHTMT

[4] = substrate: I; test: GC-MS headspace assay of methylated product; format: biochemical, Raphanus sativus; conditions: 500 μM SAM constant, 20 mM MES pH 7.0, 30 °C
Text: as §1

B1: recombinant RsHTMT (Raphanus sativus) (protein)
chain: MAEGQQNSGNSNGENIIPPEDVAKFLPKTVEEGGWEKCWEDGVTPWDQGRATPLVVHLVESSSLPLGRALVPGCGGGHDVVAMASPERYVVGLDISESALEKAAETYASSPKAKYFTFVKEDFFTWRPSELFDLIFDYVVFCAIEPEMRAAWAKTMYELLKPDGELITLMYPITDHDGGPPYKVAVSTYEDVLVPVGFKAVSIEENPYSIATRKGKEKLGRWKKIN
notes: sense primer encodes MAEGQQ), His-tagged fusion in pET-21b, E. coli BL21(DE3), Ni-Sepharose, tag kept
B1 was tested, and the Km [1] was 40 µM, the Vmax [1] was 0.185 µmol/min/mg and the Km [2] was 190 µM. The Km [3] was 12240 µM, the Vmax [3] was 0.159 µmol/min/mg and the Km [4] was 4470 µM. The Vmax [4] was 0.139 µmol/min/mg.
